This data set in a line: total protein half-life in vivo (active degradation + dilution); higher = more stable protein.
Where [1] appears, read: E. coli NCM3722 delta-clpP delta-lon delta-hslV, growth: N-lim chemostat, doubling time 6 h.
[2] abbreviates: E. coli NCM3722 delta-clpP, growth: N-lim chemostat, doubling time 6 h.
[3] abbreviates: E. coli NCM3722 delta-hslV, growth: N-lim chemostat, doubling time 6 h.
Setting [4] is: E. coli NCM3722 delta-lon, growth: N-lim chemostat, doubling time 6 h.
Where [5] appears, read: wild type E. coli NCM3722, growth: C-lim chemostat, doubling time 3 h.
The mark [6] stands for this setting: wild type E. coli NCM3722, growth: C-lim chemostat, doubling time 12 h.
Setting [7] is: wild type E. coli NCM3722, growth: N-lim chemostat, doubling time 6 h.
[8] abbreviates: wild type E. coli NCM3722, growth: N-lim chemostat, doubling time 12 h.
Setting [9] is: wild type E. coli NCM3722, growth: P-lim chemostat, doubling time 6 h.
Where [10] appears, read: wild type E. coli NCM3722, growth: P-lim chemostat, doubling time 12 h.
Where [11] appears, read: E. coli NCM3722 delta-smpB, growth: N-lim chemostat, doubling time 6 h.
[12] abbreviates: wild type E. coli NCM3722, growth: C-lim chemostat, doubling time 6 h.

± gives the standard deviation of the averaged measurements.

On to “MKRWPVFPRSLRQLVMLAFLLILLPLLVLAWQAWQSLNALSDQAALVNRTTLIDARRSEAMTNAALEMERSYRQYCVLDDPTLAKVYQSQRKRYSEMLDAHAGVLPDDKLYQALRQDLHNLAQLQCNNSGPDAAAAARLEAFASANTEMVQATRTVVFSRGQQLQREIAERGQYFGWQSLVLFLVSLVMVLLFTRMIIGPVKNIERMINRLGEGRSLGNSVSFSGPSELRSVGQRILWLSERLSWLESQRHQFLRHLSHELKTPLASMREGTELLADQVVGPLTPEQKEVVSILDSSSRNLQKLIEQLLDYNRKQADSAVELENVELAPLVETVVSAHSLPARAKMMHTDVDLKATACLAEPMLLMSVLDNLYSNAVHYGAESGNICLRSSLHGARVYIDVINTGTPIPQEERAMIFEPFFQGSHQRKGAVKGSGLGLSIARDCIRRMQGELYLVDESGQDVCFRIELPSSKNTK”, for which the “total protein half-life in vivo” value worked out at 6.52 ± 0.67 h under setting [1]; 6.72 ± 0.21 h under setting [2]; 6.56 ± 0.21 h under setting [3]; 6.41 ± 0.28 h under setting [4]; 3.12 ± 0.098 h under setting [5]; 10.8 ± 0.2 h under setting [6]. In addition, the “total protein half-life in vivo” value amounted to 6.16 ± 0.12 h under setting [7], 13.1 ± 1 h under setting [8], 6.8109 ± 0.0031 h under setting [9] and 12.6 ± 0.89 h under setting [10].

“MMDNMQTEAQPTRTRILNAAREIFSENGFHSASMKAICKSCAISPGTLYHHFISKEALIQAIILQDQERALARFREPIEGIHFVDYMVESIVSLTHEAFGQRALVVEIMAEGMRNPQVAAMLKNKHMTITEFVAQRMRDAQQKGEISPDINTAMTSRLLLDLTYGVLADIEAEDLAREASFAQGLRAMIGGILTAS [P0ACT6]”: the “total protein half-life in vivo” value came out at 6.37 ± 1.1 h under setting [1]; 5.2 ± 0.53 h under setting [2]; 4.39 ± 0.71 h under setting [3]; 5.56 ± 0.51 h under setting [11]; 3.36 ± 0.77 h under setting [5]; 6.053 ± 0.026 h under setting [12]. For the same substance, the “total protein half-life in vivo” value is, setting by setting: under setting [7], 4.87 ± 0.49 h; under setting [8], 9.35 ± 0.28 h; under setting [9], 4.64 ± 0.12 h; under setting [10], 10.3 ± 0.2 h.

Take “MFAEYGVLNYWTYLVGAIFIVLVPGPNTLFVLKNSVSSGMKGGYLAACGVFIGDAVLMFLAWAGVATLIKTTPILFNIVRYLGAFYLLYLGSKILYATLKGKNSEAKSDEPQYGAIFKRALILSLTNPKAILFYVSFFVQFIDVNAPHTGISFFILAATLELVSFCYLSFLIISGAFVTQYIRTKKKLAKVGNSLIGLMFVGFAARLATLQS”: the “total protein half-life in vivo” value under setting [3] is 4.19 ± 0.057 h, the “total protein half-life in vivo” value under setting [4] was 5.03 ± 0.45 h, the “total protein half-life in vivo” value under setting [5] is greater than 4 h and the “total protein half-life in vivo” value under setting [8] is 8.29 h.

In the case of “MKGSYKSRWVIVIVVVIAAIAAFWFWQGRNDSRSAAPGATKQAQQSPAGGRRGMRSGPLAPVQAATAVEQAVPRYLTGLGTITAANTVTVRSRVDGQLIALHFQEGQQVKAGDLLAEIDPSQFKVALAQAQGQLAKDKATLANARRDLARYQQLAKTNLVSRQELDAQQALVSETEGTIKADEASVASAQLQLDWSRITAPVDGRVGLKQVDVGNQISSGDTTGIVVITQTHPIDLVFTLPESDIATVVQAQKAGKPLVVEAWDRTNSKKLSEGTLLSLDNQIDATTGTIKVKARFNNQDDALFPNQFVNARMLVDTEQNAVVIPTAALQMGNEGHFVWVLNSENKVSKHLVTPGIQDSQKVVIRAGISAGDRVVTDGIDRLTEGAKVEVVEAQSATTPEEKATSREYAKKGARS”, the “total protein half-life in vivo” value reads like this: under setting [1], 6.33 ± 0.75 h; under setting [4], 6.148 ± 0.046 h; under setting [11], 6.07 ± 0.51 h; under setting [12], 6.25 ± 0.65 h; under setting [6], 12.3 ± 0.27 h; under setting [7], 6.1255 ± 0.0044 h. The “total protein half-life in vivo” value by setting is: under setting [8], 13.2 ± 0.32 h; under setting [9], 5.8716 ± 0.00037 h; under setting [10], 10.5 ± 0.89 h.

On to P0AES2, for which the “total protein half-life in vivo” value under setting [1] came out at 4.25 ± 0.51 h; the “total protein half-life in vivo” value under setting [2] is 3.729 ± 0.03 h; the “total protein half-life in vivo” value under setting [3] is 3.64 ± 0.5 h; the “total protein half-life in vivo” value under setting [4] worked out at 3.41 ± 0.14 h; the “total protein half-life in vivo” value under setting [11] stood at 3.21 ± 0.19 h; the “total protein half-life in vivo” value under setting [5] came to 3.03 ± 0.049 h. Also, the “total protein half-life in vivo” value runs as follows: under setting [12], 5.26 ± 0.72 h; under setting [6], 8.83 ± 0.4 h; under setting [7], 3.14 ± 0.086 h; under setting [8], 4.57 ± 0.082 h; under setting [9], 5.38 ± 0.73 h; under setting [10], 8.99 ± 0.022 h.

With “MNMKKLATLVSAVALSATVSANAMAKDTIALVVSTLNNPFFVSLKDGAQKEADKLGYNLVVLDSQNNPAKELANVQDLTVRGTKILLINPTDSDAVGNAVKMANQANIPVITLDRQATKGEVVSHIASDNVLGGKIAGDYIAKKAGEGAKVIELQGIAGTSAARERGEGFQQAVAAHKFNVLASQPADFDRIKGLNVMQNLLTAHPDVQAVFAQNDEMALGALRALQTAGKSDVMVVGFDGTPDGEKAVNDGKLAATIAQLPDQIGAKGVETADKVLKGEKVQAKYPVDLKLVVKQ”, the “total protein half-life in vivo” value stood at 3.56 ± 0.29 h under setting [1]; 5.92 ± 0.94 h under setting [2]; 6.39 ± 0.68 h under setting [4]; 6.26 ± 0.56 h under setting [11]; 3.27 ± 0.035 h under setting [5]; 6.14 ± 1.1 h under setting [12]. Besides, the “total protein half-life in vivo” value under setting [6] was determined as 9.24 ± 0.57 h; the “total protein half-life in vivo” value under setting [7] stood at 6.13 ± 0.6 h; the “total protein half-life in vivo” value under setting [8] is 10.9 ± 0.88 h; the “total protein half-life in vivo” value under setting [9] was determined as 6.05 ± 0.068 h; the “total protein half-life in vivo” value under setting [10] was found to be 11.5 ± 0.92 h.

For the origin of these results see the supplement of paper PMC11246515.
